From doi:10.1101/2019.12.17.868638

Biological target: Rl-SRDI565 sulfoquinovosidase, K375A/K376A variant (RlSQase*) (Rhizobium leguminosarum bv. trifolii SRDI565)
Assay: SEC-MALS

**Q.** How did the stoichiometry N turn out when “Rl-SRDI565 sulfoquinovosidase, K375A/K376A variant (RlSQase*) (enzyme)” was run?
**A.** 2
